According to IntAct's records for PubMed 23027862:

B1: Beta-1,3-galactosyl-O-glycosyl-glycoprotein beta-1,6-N-acetylglucosaminyltransferase (Homo sapiens), Q02742 (parent)
chain: MLRTLLRRRLFSYPTKYYFMVLVLSLITFSVLRIHQKPEFVSVRHLELAGENPSSDINCTKVLQGDVNEIQKVKLEILTVKFKKRPRWTPDDYINMTSDCSSFIKRRKYIVEPLSKEEAEFPIAYSIVVHHKIEMLDRLLRAIYMPQNFYCIHVDTKSEDSYLAAVMGIASCFSNVFVASRLESVVYASWSRVQADLNCMKDLYAMSANWKYLINLCGMDFPIKTNLEIVRKLKLLMGENNLETERMPSHKEERWKKRYEVVNGKLTNTGTVKMLPPLETPLFSGSAYFVVSREYVGYVLQNEKIQKLMEWAQDTYSPDEYLWATIQRIPEVPGSLPASHKYDLSDMQAVARFVKWQYFEGDVSKGAPYPPCDGVHVRSVCIFGAGDLNWMLRKHHLFANKFDVDVDLFAIQCLDEHLRHKALETLKH

Variants of: B1
Details: with golp3_human GOLPH3, Q9H4A6
Chain of golp3_human GOLPH3, Q9H4A6 (Q9H4A6 whole entry): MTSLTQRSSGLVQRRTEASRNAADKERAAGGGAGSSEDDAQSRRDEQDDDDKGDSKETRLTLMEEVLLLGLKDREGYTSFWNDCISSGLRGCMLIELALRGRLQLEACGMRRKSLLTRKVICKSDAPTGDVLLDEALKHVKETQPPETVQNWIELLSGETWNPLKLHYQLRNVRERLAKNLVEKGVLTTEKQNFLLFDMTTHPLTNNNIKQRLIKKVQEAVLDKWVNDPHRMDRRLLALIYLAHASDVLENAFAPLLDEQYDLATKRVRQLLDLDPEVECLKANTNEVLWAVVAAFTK

effect of a mutation on the interaction | Variant
disrupting interaction strength | MLRTLLAAALFSYPTKYYFMVLVLSLITFSVLRIHQKPEFVSVRHLELAGENPSSDINCTKVLQGDVNEIQKVKLEILTVKFKKRPRWTPDDYINMTSDCSSFIKRRKYIVEPLSKEEAEFPIAYSIVVHHKIEMLDRLLRAIYMPQNFYCIHVDTKSEDSYLAAVMGIASCFSNVFVASRLESVVYASWSRVQADLNCMKDLYAMSANWKYLINLCGMDFPIKTNLEIVRKLKLLMGENNLETERMPSHKEERWKKRYEVVNGKLTNTGTVKMLPPLETPLFSGSAYFVVSREYVGYVLQNEKIQKLMEWAQDTYSPDEYLWATIQRIPEVPGSLPASHKYDLSDMQAVARFVKWQYFEGDVSKGAPYPPCDGVHVRSVCIFGAGDLNWMLRKHHLFANKFDVDVDLFAIQCLDEHLRHKALETLKH [R7A;R8A;R9A]

Variants of: B1
Details: with golp3_human GOLPH3, Q9H4A6
Remark: another data set of the same source

effect of a mutation on the interaction | Variant
disrupting interaction strength | MLRTAARRRLFSYPTKYYFMVLVLSLITFSVLRIHQKPEFVSVRHLELAGENPSSDINCTKVLQGDVNEIQKVKLEILTVKFKKRPRWTPDDYINMTSDCSSFIKRRKYIVEPLSKEEAEFPIAYSIVVHHKIEMLDRLLRAIYMPQNFYCIHVDTKSEDSYLAAVMGIASCFSNVFVASRLESVVYASWSRVQADLNCMKDLYAMSANWKYLINLCGMDFPIKTNLEIVRKLKLLMGENNLETERMPSHKEERWKKRYEVVNGKLTNTGTVKMLPPLETPLFSGSAYFVVSREYVGYVLQNEKIQKLMEWAQDTYSPDEYLWATIQRIPEVPGSLPASHKYDLSDMQAVARFVKWQYFEGDVSKGAPYPPCDGVHVRSVCIFGAGDLNWMLRKHHLFANKFDVDVDLFAIQCLDEHLRHKALETLKH [L5A;L6A]
